# Assay results reported in paper PMC4835082.
# Experiments:
# factor X = factor X (UniProt P00742)
# factor Xa = factor Xa (UniProt P00742)
# daboxin P, sequence (C0HK16 whole entry): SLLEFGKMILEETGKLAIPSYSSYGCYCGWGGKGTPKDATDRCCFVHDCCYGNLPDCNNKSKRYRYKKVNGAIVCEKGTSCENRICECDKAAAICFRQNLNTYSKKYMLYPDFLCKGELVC
substance,measurement,setting,value
daboxin P (enzyme),"IC50 of inhibition of FXa generation by the extrinsic tenase complex (ETC), in the presence of phospholipids, chromogenic substrate S-2222",factor X,0.43 nM
same,"IC50 of inhibition of FXa generation by the intrinsic tenase complex (ITC), in the presence of phospholipids, chromogenic substrate S-2222",factor X,39.2 nM
same,residual activity of ETC (with phospholipids) upon treatment with 3 uM of daboxin P,factor X,9.05%
same,"residual activity of ETC reconstituted without phospholipid, treated with daboxin P",factor X,25%
same,residual activity of ITC (with phospholipids) upon treatment with 3 uM of daboxin P,factor X,2.8%
same,"residual activity of ITC reconstituted without phospholipid, treated with daboxin P",factor X,20.1%
same,"residual activity of the prothrombinase complex (thrombin formation, S-2238) when daboxin P was pre-incubated with FXa followed by addition of FVa",factor Xa,11.3%
alkylated daboxin P (enzyme),residual activity of ETC treated with alkylated daboxin P (3 uM),factor X,23%
same,residual activity of ITC treated with alkylated daboxin P (3 uM),factor X,19%
